In patent publication US20090017017A1 (SYMPHOGEN A S, published 2009):

T1: Rhesus D antigen (human, UniProt Q02161 2-417)
T1 construct: whole, on cells; Presented on RhD(+) erythrocytes; also called RhD; RhD antigen
T1 sequence (looked up): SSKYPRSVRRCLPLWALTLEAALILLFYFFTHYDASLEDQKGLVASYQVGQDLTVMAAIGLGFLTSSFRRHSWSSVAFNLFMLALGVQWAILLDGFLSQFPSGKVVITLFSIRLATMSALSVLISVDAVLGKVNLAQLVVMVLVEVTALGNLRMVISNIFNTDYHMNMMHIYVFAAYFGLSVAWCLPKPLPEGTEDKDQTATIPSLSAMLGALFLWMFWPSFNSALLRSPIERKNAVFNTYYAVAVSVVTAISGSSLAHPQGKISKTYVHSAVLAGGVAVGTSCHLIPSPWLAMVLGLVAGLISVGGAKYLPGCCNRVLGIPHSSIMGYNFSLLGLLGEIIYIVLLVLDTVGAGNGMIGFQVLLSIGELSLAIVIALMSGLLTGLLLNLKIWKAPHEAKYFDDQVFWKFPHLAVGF


Biological target: T1, Rhesus D antigen
Assay: Fab screening on RBC (agglutination, FACS)
Protocol: After each round of panning single colonies were picked for analysis of their binding properties to red blood cells in agglutination assays. Briefly, single colonies were inoculated into 2×YT/100 μg/mL carbenicillin/1% glucose and shaken overnight at 37° C. The next day, DeepWell plates were inoculated using 900 μl 2×YT/100 μg/mL carbenicillin/0.1% glucose and 10 μl overnight culture. The plates were shaken for two hours at 37° C., before Fab induction was performed with addition of 300 μl 2×YT/100 μg/mL carbenicillin/0.25 mM IPTG per well. The plate was shaken overnight at 30° C. The following day, the bacteria were pelleted by centrifugation (3200×g, 4° C., 10 minutes), and re-suspended in 100 μl of 0.8 M NaCl, 0.2×PBS, 8 mM EDTA, and incubated for 15 minutes on ice in order to perform a periplasmic extraction of the Fab fragments. The plate was transferred to −20° C. and finally the suspension was thawed and centrifugation was performed for 10 minutes at 4° C. and 3200×g. The periplasmic extract was used in ELISA assays for analysis of Fab content and in agglutination assays to evaluate the binding potential of the individual Fab fragments.
The agglutination assay was performed as follows: RhD(−) and RhD(+) RBC were mixed in a 1:1 ratio, and washed 3 times in PBS. After the final wash, the cell mix was re-suspended in 1% BSA in PBS at a density of 10% cells, 50 μl was added to each well of a 96-plate. Periplasmic extracts were added to the wells. As a positive control Rhesogamma P immunoglobulin (Aventis) was used according to the manufacturer's instructions. The plates were incubated for one hour at room temperature with gentle shaking. The cells were washed three times with PBS, before the secondary antibody was added (goat anti-human Fab/FITC conjugate, Sigma F5512) in a 1:100 dilution. The plates were left for agglutination for one hour at room temperature without shaking. Fab fragments positive in the agglutination assay was determined by visual inspection, and recorded by taking a picture. Quantization of the binding activity of the Fab fragments was performed by FACS analysis of the agglutination samples.

Binder	binding result
RhD162.119G12 (Fab, V domains shown, Tested as Fab in E. coli periplasmic extract (VH on human gamma 1 CH1, vector Em351)) VH: QVQLVESGGGLVKPGGSLRLSCAASGFGFSAYSMNWVRQAPGKGLEWVSSITSTTTYYADSVKGRFSISRDNAKSTLYLRMNSLRAEDTAVYYCVREIAFRGSTYSRWSYYFDFWGQGTLVTVSS VL: DIQLTQSPSSVSASVGDSVTITCRASQAVSGWVAWYQQKPGKAPKLLIFGLSNLEDGVPSRFSGSGSATDFTLTITGLQPEDLATYYCLQANRFPLSFGGGTRVEIKR	binds
RhD163.119A02 (Fab, V domains shown, Tested as Fab in E. coli periplasmic extract (VH on human gamma 1 CH1, vector Em351)) VH: QVQLQESGPGLVKPSETLSLTCTVSGGSISSYYWSWVRQPPGKGLEWIGYIYYSGSTNYNPSLKSRVTIALDTSKNQFSLKLRSVTAADTAVYFCTRDWRQYGSAIRGSRYYYGMDVWGQGTTVTVSS VL: EIVLTQSPGTLSLSPGERATLSCRASQNPRRNFLAWYQQKPGQAPRLLIYAASTRATGIPDRFSGSGSGTDFTLTIDRLEPEDSAVYYCQVYGSSPLYTFGQGTKVEMKR	binds
RhD189.181E07 (Fab, V domains shown, Tested as Fab in E. coli periplasmic extract (VH on human gamma 1 CH1, vector Em351)) VH: QVQLVESGGGVVQPGRSLRLSCAASGFTFSSYGMHWVRQAPGKGLEWVAVIWYDGSNKYYADSVKGRFTISRDNSKNTLYLQMNSLRAEDTAVYYCARDMVTMVRGAYRNYYYYGMDVWGKGTTVTVSS VL: not shown	binds
